From article PMC10711660, “An extended Tudor domain within Vreteno interconnects Gtsf1L and Ago3 for piRNA biogenesis in Bombyx mori” (The EMBO Journal, 2023)

B1: His‐BmGtsf1L (natural protein, Bombyx mori)
chain: MDDPFVSCPYNPIHRVPRSRLQRHIVKCEWINPTMIACPYNATHRYTQEDMKFHVLNCPSKTSIFPIEKPPKTVASITTPKIILQKEYLPETDPNHEIWDD
notes: BmGtsf1L, Bombyx mori; pET28a, thrombin site after the His6 tag; also called His6‐thrombin‐BmGtsf1L; recombinant BmGtsf1L; source: E. coli BL21 DE3 codon+, purified (HisTrap, gel filtration); not shown: His6, N-terminal, kept
B2: GST‐BmVreteno‐L (natural protein, Bombyx mori)
chain: MSNHSRPQRRREWDPMRDDFNEHTYDVQYADDNAGEQVQLDHTKLYIINIPRGLSEDGIRAAFSKHGKVLSARLSKNPNKRFAIVQFETASEAKLAMMKMNGSEPLNLKISIAHKTIRKTQHDNKDRNYSTSRNGHCSRDEASSISSKGWNMRNLDDVMNNDEIDEIDDMIHEDHDDNLDLELDMLTLKQLKIKEEQLMCKRRLLLRHAEKRQVAPHSSAGRSVLPDGRIVVRNNANETDSAEVEPSFAGAGSESLKTPGLERNASRQCVKCGAPADWYCSRCAITPYCSQTCQTRDWTERHKSVCHYLAPLKTAGGFEAEATSSKSVSNSTPMRSSHSPPTKQQRGEADETDNKAKNIQEPRQNYHRPSNSGPNKNIPGKNQDPRRPATSREAIEEETEERGARNPKPAEATKDKHHPMNPVTFQRRQLKSNPVVDAQPAPREQQQPAATRAPEASPTEQRESTRRTLVPDRCLIDSLSEGDVVLVSVELKASECCTKQGGYVCLSMHEKYESDYQKLCEDYVLDCEADSDEYKIITGDTFSYLSPEDGGWYRARALNTTMAALLDGSKVVYLRMNDKVKKLPAKYSGIPEFCCVLNADVEVGLNLKCSLLSKTPNGFKVTLENVETEANVGEGEITRWIPEVDYPPPVKNVPVQRSVEIPEVPRPEIKNKSRVILVDATDVQRVFVRPADTRSQKAFDNILQDVLLYGTTAEPLKEPPSKGQTVVSKYTDNLHYRALCKRTSVNKNKYLLEYIEYGNIEITQLNRLYPCPEHLSVTSLASLTSHVQLDTTVGELTPRALEYIETIKEEEMILTLSSGGDTAQSGAALVNLTLVKNNDNVNKRIEELCTPEWKKLELKGVDVIETERLMYGTALDYIELPAAPFDLQVLDEVGLDSGNISGCPTNSDYVRYVMTKLPARMREYCESEFGRQPYLPAAEELCIAQLPPSSEWHRAVVLEQILGPGGGTARVLFVDHGNVAEVPVSSLRKMLAEFVTDLPAVACQIVIEDFPKQATAEMLAKARRFMSGPDKARAAQLPVRGCDKQDVGIYAIRVPELLEAMTE
notes: BmVreteno Long isoform, Bombyx mori; pGEX-6p vector, 3C site between GST and BmVreteno; the purified protein was associated with nucleic acids; also called GST‐3C‐BmVreteno; full‐length BmVreteno‐L; source: E. coli BL21 DE3 codon+, purified (GSTrap, gel filtration); not shown: GST, N-terminal, kept

How the values were obtained:
GST‐BmVreteno‐L = target: B2; experiment: pull-down; GSH pull-down: 5 μM GST-BmVreteno (or fragment, variant) on Glutathione Sepharose 4B with 10 μM His-BmGtsf1L, 2 h 4°C, PBS with 0.1% Triton-X100; SDS-PAGE, Coomassie (Fig 5G also anti-His Western blot); conditions: both partners purified
[1] = target: the molecule itself; experiment: SEC; gel filtration of purified GST-BmVreteno-L and -S (Superdex 75 and 200 16/60 pg, 25 mM Na-Hepes, 300 mM NaCl, 10% glycerol, pH 7.4); protein associated with nucleic acids

binding result (GST‐BmVreteno‐L) | Binder | binding result [1]
binds | B1 | 
 | B2 | binds
